Data taken from patent US20220403174A1, “METHOD FOR PREPARING COLORANT HAVING TARGET COLOR AND COLORANT” (Fudan University, priority 2021, published 2022).

Test: stability of the structural color on a baked biscuit at high temperature
Assay type: physicochemical
Details: 130-150° C.
Description: At block 902, a predetermined solution mixed with the submicron particles prepared from the predetermined material and the cuttlefish juice submicron particles is applied to a target object. The target object, for example, is food such as, but not limited to, various pastries and candies. For example, a mixture solution of the TiO2 submicron particles and cuttlefish juice submicron particles are added dropwise onto a surface of a biscuit.
At block 904, the target object is baked or frozen to evaporate or sublimate the predetermined solution such that the submicron particles prepared from the predetermined material and the cuttlefish juice submicron particles can be self-assembled into the amorphous photonic crystal structure on the target object, where the baking temperature is less than or equal to 250° C.
For example, when baked, the biscuit having drops of the mixture solution added onto the surface is dried with the increasing baking temperature. In the case, the submicron particles prepared from the predetermined material and the cuttlefish juice submicron particles are self-assembled to generate the structural color of the amorphous photonic crystal structure. The structural color is stable in the baked state at a high temperature (130-150° C.), and the legacy phycocyanin will fade at such high temperature. […]

Substance: phycocyanin
- color stability in the baked state: will fade
